This passage reports Kd, binding result and koff results from PMC8847575, “HSL1 and BAM1/2 impact epidermal cell development by sensing distinct signaling peptides” (Nature Communications, 2022).

Square brackets hold non-standard residues; d marks the D form. Ends that are not written are not given here. Hyp = O=C(O)[C@@H]1C[C@@H](O)CN1

Assay [1] concerns the target T1, HSL1 (HAESA-LIKE 1) ectodomain (Arabidopsis, UniProt Q9SGP2 17-618).
T1 chain: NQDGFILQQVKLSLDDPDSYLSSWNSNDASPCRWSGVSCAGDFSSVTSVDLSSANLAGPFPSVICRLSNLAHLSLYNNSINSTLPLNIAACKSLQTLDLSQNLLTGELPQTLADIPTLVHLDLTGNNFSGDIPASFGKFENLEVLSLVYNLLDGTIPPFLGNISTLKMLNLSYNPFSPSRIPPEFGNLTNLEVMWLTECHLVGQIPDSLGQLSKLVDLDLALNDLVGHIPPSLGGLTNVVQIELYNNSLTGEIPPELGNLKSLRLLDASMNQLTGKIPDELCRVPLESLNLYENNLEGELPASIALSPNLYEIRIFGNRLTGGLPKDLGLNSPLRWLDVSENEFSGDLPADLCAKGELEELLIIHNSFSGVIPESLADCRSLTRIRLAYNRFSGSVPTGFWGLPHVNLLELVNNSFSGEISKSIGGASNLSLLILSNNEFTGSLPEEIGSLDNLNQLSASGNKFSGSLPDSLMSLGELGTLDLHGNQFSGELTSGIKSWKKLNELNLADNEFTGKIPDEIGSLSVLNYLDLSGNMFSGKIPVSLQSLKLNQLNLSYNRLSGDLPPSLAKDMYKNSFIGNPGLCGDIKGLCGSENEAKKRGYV
As to the kind of experiment: ITC. On the technique in general: ITC needs no label: the signal is the heat of the interaction.

Assay [2] has as its target T2, HSL1 (HAESA-LIKE 1) ectodomain (Arabidopsis, UniProt Q9SGP2 17-618).
T2 construct: HSL1 LRR receptor kinase ectodomain, Arabidopsis, residues 17-618, AT1G28440; codon optimised; secreted with an azurocidin or Drosophila BiP signal peptide; also called isolated HSL1 ectodomain; LRR-RK HSL1; source: Trichoplusia ni Tnao38 cells (baculovirus), secreted, purified (Ni2+, Strep-Tactin, TEV cleavage, second Ni2+, SEC)
T2 sequence (looked up): T1 chain
The assay is described as follows: ITC; peptide (75 to 600 µM) injected into 10 to 30 µM HSL1 or BAM1 ectodomain in the cell; 25 °C; 20 mM sodium citrate pH 5.0, 150 mM NaCl; N fitted to 1. The settings on record: both partners purified.

Assay [3] deals with T3, BAM1 (BARELY ANY MERISTEM 1) ectodomain (Arabidopsis, UniProt O49545 20-637).
T3 construct: BAM1 LRR receptor kinase ectodomain, Arabidopsis, residues 20-637, AT5G65700; codon optimised; secreted with an azurocidin or Drosophila BiP signal peptide; also called BAM1 extracellular domain; BAM1 LRR ectodomain; source: Trichoplusia ni Tnao38 cells (baculovirus), secreted, purified (Ni2+, Strep-Tactin, TEV cleavage, second Ni2+, SEC)
T3 sequence (looked up): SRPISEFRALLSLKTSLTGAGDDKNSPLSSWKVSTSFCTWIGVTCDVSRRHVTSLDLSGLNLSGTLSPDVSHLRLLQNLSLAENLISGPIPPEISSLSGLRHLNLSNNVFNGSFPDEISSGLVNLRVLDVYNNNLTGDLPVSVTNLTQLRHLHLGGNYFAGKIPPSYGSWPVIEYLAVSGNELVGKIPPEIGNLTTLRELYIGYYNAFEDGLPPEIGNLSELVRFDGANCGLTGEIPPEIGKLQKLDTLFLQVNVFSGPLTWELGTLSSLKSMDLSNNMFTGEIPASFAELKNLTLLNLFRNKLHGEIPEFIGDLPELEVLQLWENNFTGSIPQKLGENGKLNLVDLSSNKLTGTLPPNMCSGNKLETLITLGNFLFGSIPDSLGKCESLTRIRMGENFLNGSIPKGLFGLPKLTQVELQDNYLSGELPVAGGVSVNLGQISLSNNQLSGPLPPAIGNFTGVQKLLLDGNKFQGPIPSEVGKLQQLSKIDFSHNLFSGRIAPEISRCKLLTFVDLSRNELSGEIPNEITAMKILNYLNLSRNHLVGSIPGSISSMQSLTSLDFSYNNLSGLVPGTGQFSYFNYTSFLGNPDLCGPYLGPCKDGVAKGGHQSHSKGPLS
Described as above. The following applies: both partners purified.

Assay [4] addresses T4, SERK1 (SOMATIC EMBRYOGENESIS RECEPTOR KINASE 1) ectodomain (Arabidopsis, UniProt Q94AG2 24-213).
T4 construct: SERK1 ectodomain, Arabidopsis, residues 24-213, AT1G71830; codon optimised; secreted with an azurocidin or Drosophila BiP signal peptide; also called co-receptor SERK1; source: Trichoplusia ni Tnao38 cells (baculovirus), secreted, purified (Ni2+, Strep-Tactin, TEV cleavage, second Ni2+, SEC)
T4 sequence (looked up): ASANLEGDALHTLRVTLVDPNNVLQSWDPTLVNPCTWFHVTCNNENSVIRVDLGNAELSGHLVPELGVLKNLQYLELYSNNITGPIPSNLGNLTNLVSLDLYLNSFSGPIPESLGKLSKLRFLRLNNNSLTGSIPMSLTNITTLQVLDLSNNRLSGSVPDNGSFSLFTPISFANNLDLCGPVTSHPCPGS
As to the kind of experiment: crystal structure; HSL1-CLE9-SERK1, mixed 1:1:1.5; 0.2 M K/Na tartrate, 20% PEG 3350; 2.87 Å. The following applies: both partners purified.

Assay [5] concerns the target T5, biotinylated HSL1 ectodomain with Avi-tag (Arabidopsis, UniProt Q9SGP2 17-618, biotin on the Avi-tag (BirA)).
T5 chain: T1 chain
As to the kind of experiment: GCI, with IDL2.

For assay [6], the target named is T5, biotinylated HSL1 ectodomain with …. As to the kind of experiment: GCI, with IDL3.
For assay [7] the target is unchanged. As to the kind of experiment: in presence of IDL3.
Assay [8] shares this target. As to the kind of experiment: GCI, with IDL1.
Assay [9] deals with T1, HSL1 (HAESA-LIKE 1) ectodomain. The assay is described as follows: ITC; with IDL2.
For assay [10], the target named is T5, biotinylated HSL1 ectodomain with …. As to the kind of experiment: GCI, with IDA.
In assay [11] the target is T1, HSL1 (HAESA-LIKE 1) ectodomain. The assay is described as follows: ITC; with IDL4.
For assay [12] the target is unchanged. As to the kind of experiment: ITC; with IDA.
For assay [13], the target named is T5, biotinylated HSL1 ectodomain with …. As to the kind of experiment: in presence of IDL3.
Assay [14] has the same target. The assay is described as follows: GCI, with IDL1.
The target is the same in assay [15]. As to the kind of experiment: in presence of IDL1.
For assay [16] the target is unchanged. As to the kind of experiment: GCI, with IDL3.
For assay [17], the target named is T1, HSL1 (HAESA-LIKE 1) ectodomain. The assay is described as follows: ITC; with CLE9^N116S.
Assay [18] has the same target. The assay is described as follows: ITC; with IDL1.
Assay [19] deals with T5, biotinylated HSL1 ectodomain with …. The assay is described as follows: in presence of IDL2.
For assay [20] the target is unchanged. As to the kind of experiment: in presence of IDL4.
Assay [21] shares this target. The assay is described as follows: GCI, with IDL4.
Assay [22] has the same target. The assay is described as follows: in presence of IDL4.
In assay [23] the target is T1, HSL1 (HAESA-LIKE 1) ectodomain. As to the kind of experiment: ITC; with IDL3.
Assay [24] concerns the target T5, biotinylated HSL1 ectodomain with …. The assay is described as follows: in presence of IDL1.
The target is the same in assay [25]. As to the kind of experiment: in presence of IDL2.

B1: CLE9^N116S peptide (peptide, UniProt Q9FZE4 109-120, looked up)
peptide: RLVPSGPSPLHN
notes: CLE9 mature dodecapeptide with Asn116 changed to Ser; also called Asn116^CLE9 to a Ser
What is called Kd is the free concentration of one partner at which half of the binding sites on the other are occupied at equilibrium, for simple one-to-one binding. In assay [1], B1 yielded a Kd of 7150 nM. Besides, in assay [2], the binding result is on record as “binds”.

B2: CLE9 mature peptide (peptide, UniProt Q9FZE4 109-120, looked up)
peptide: RLV[Hyp]SG[Hyp]NPLHN
notes: CLE9 mature dodecapeptide, AT1G26600; printed residues R109, L110, V111, Hyp112, Ser113, Hyp115, Asn116; also called wild-type CLE9 peptide
B2 gave a dissociation constant (Kd) in assay [3] of 100 nM. Also, in assay [4], the binding result was “binds”.

B3: SERK1 (SOMATIC EMBRYOGENESIS RECEPTOR KINASE 1) ectodomain (domain or fragment)
chain: T4 sequence (looked up)
As a reminder, the koff is the first-order rate constant of dissociation. As for B3, the Kd in assay [5] stood at 9 nM; in assay [7] it was 8.5 nM; in assay [8], 12.5 nM; in assay [9], 16 nM; in assay [10] it was 9 nM; in assay [11] it was 49 nM. The Kd came out at 22 nM in assay [12]; 1 nM in assay [16]; 170 nM in assay [17]; 44 nM in assay [18]; 12.5 nM in assay [21]; 10.7 nM in assay [22]. Further, the Kd in assay [23] was 26 nM; in assay [24] it was 12.5 nM; in assay [25] it was 1.5 nM. Further, the koff in assay [6] came to 3e-05 s⁻¹; in assay [13] it was 0.00026 s⁻¹; in assay [14], 0.00018 s⁻¹; in [15], 0.00018 s⁻¹; in [19] it was 0.00011 s⁻¹; in assay [20] it was 0.00013 s⁻¹.
